Laboratory results as given in the domain aggregation screens of Martell et al. (2025).

Experiment: soluble fraction after stress (log2 fold change); higher = more stays soluble; pooled small domains, quantitative proteomics
Conditions: stress: 75 degC
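Also: 20 min heating vs room temperature control held 20 min.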

Sequence	soluble fraction (log2)
HMLLPANLTKSQRNIAERVARGQSNLEIAADLNITERTVKAHLTSIYEKTKTGNRLNLALLINLG	-0.289
HMLLPGEELRVMIIQEGKEYGQGVGYLDDGTMVVVEDGQRALNRTENVVVTKVLQTTAGRMIFAK	-0.71
HMLLQENRKLHSKLEELQLISRAKAVLIEYLKLTEPQAHRYIEKQAMDLGLTRPQVALNILKTYE	-1.38
HMLLQTAVISTDIVNMRAEPTTNSSVIRKLTKGSDITINQEKDGWYKISDDQGNSGWIVTWAAKPT	-0.208
HMLMDVRVPDIIGVEINQAKEILTASSLLIGKITYVSLPEIEKDLVIETSVLAGRRVSAGTVIDITVNKE	-2.09
HMLMKPQKTRDVLRYLKSIGWVRLRGGQGSHEIWGLPDGSIRAVIPAGHREISAGVLMQLKRAGVDVPTQW	-1.25
HMLMLTPGQIAQTLDVSTATVRRWSARYARHLSPNTPGKKRSYTVDDLAVLTRVRDLSATGTPLAQIDQAL	-2.11
HMLMLTPGQVSNSLNVSTATVRRWSARFARHLSPQPPNRKRSYTPDDLATLARVRDLSASGTSLAQIDIAL	-2.59
HMLMRSPDFLIGWFQNLVAKRETFNDQVQAKNLIEAGKQHIQGEDFDRLLEVNRRLFSLLPQREQE	0.177
HMLNAPFGFRIEDDTLIPIPEEAKVVRQIFRYYLQGMGFGKIAQELNGQDVPGKPWGKERIKYILSNEKYI	-2.47
HMLNERQKKIIKILKDNKNWMTGKELSEFLNVSDRTIRSDIEYINRYNNALIESNVKNGYHLNFE	-0.233
HMLNIVTIFEEQFGRPLSPIELNIIKDWKESDYSDEMIVKALKEAVKSQVLNFRYVEGILNNWAKNG	-0.783
HMLNLNEAEKSIYVLIKKNESNNLNKVKEDSNLSNKAWDKGIKNLVKNNLVKVVKSNEGLFIQLV	-0.636
HMLNLNILTDKEKFIAKLISRGLSDSLIAKELYISISTVRSHVNSIYGKTNIKNRSHLASSFLYFELGNLL	-0.204
HMLNPMILLTKGGENIRLDKFLSSHLSDLSRTQIQKMVKEGLVLVNGEPSKVGLKLDGSETIQYTLPK	-0.18
HMLNSISIKTNKKIDFLEKNEHLVNFVYEKETMEHIYNLSYENKKDLQELQNKLSDIEGIIKINTDL	0.651
HMLPDVSITGHIFIRSGSRLNRIFVGESTYHVGDMLDGKWLIESINSDSLELRSGTQTTELPL	-2.83
HMLPDYLIELKKKADSGDAVSQNDIGNIYLYGLPRVNIYPDEKNIGIGIDYLYKAAWQDQVNAMTTI	-0.098
HMLPELQPGQTFSARIQQALPDNTYRALVAGKQLTLQLPEGAKAGDELELVVLDRSARVIIARQVD	-0.691
HMLPGERFKVKIAQAGKEKKQGIGYLNDGTMVVIENGIEKVGEEVEAVVIKVIQSSAGKIIFSEVAK	0.0862
HMLPGKEIPLPEFLREAFARNEPALENFQNLAPSYRRQYILWITSAKTPETVQKRISESIGLLKENRKLGM	-0.616
HMLPGLGPIERAQFMLQAIPGISPTRSAALIDKFGSIAGIAQASIKDIQTIEGIGKKTATTLYEVLNAG	-0.39
HMLPISGDDRDALDMAALILKQYDSLPILKEFANVVTKLQTVLDGVVSNSIEARRQMIQFEE	0.0649
HMLPITPGQKYKFVVKSAEEAAAIIRDKLGEMAQVISVRQVEGEGLARFLKSPKLEIIAQVPVA	-0.35
HMLPLGSNEYETAVIKHLASGVQDADEIQRLTGIDQTSLNTALTMLELAGTIRPLGNNHWTL	0.459
HMLPLHFIEIVSLKKIDTLTKRKELINYAFSKNEKTYIYKLAFKKKSELDNLYKEINLFNEIINIDIRHS	-0.577

Sequence	soluble fraction (log2)
HMLPLPRFASLDSSEANLRAGPGKDYPILWVYQRKGLPVEIIQEFDTWRRIRDRDGTVGWVQQNLL	-0.351
HMLPNIKSEMEILGDNAKARLEAAELWSKKYLSNEAYDTMSKLATTADGVKAIEEIMNITKS	0.0754
HMLPSELLAQQRIVVQPGHNLWRIARATYGRGARYTVIYQANREQIADPNRIFPGQVFALPAA	-0.102
HMLPSMENWLGELSFWQTPWWERRDFSTFDNIAQSKEELDEFMSRDDNGAILERMQDPINTIEAE	-0.285
HMLQGKVSFFNDEKGYGFIKDNNSKDSYFVHINKVEGEIAEGDKVTFELEKGPKGLVAANVKR	0.0967
HMLQIGDEEFIENIVKQVIDENQKAVDDYKKGKEKVMAFLIGQVMKKTKGKVNSEIVEKTIKKL	-0.211
HMLQKEVHQQIQQALRALPYHQRTAIVLYYYEGMSVKEIAQATGSMQGTVQSRLFFARKKLRPILESILKK	-1.15
HMLQQNRAVEAEQLARKGLSYAQSNIQQAALWRLVAEATEQQGKVDAALNAKNKAMQLEMAG	0.248
HMLRTLSTSEFAEAIGISESSARRLADSGDLRIRRTKGGHRKIPAEEAIRYAREIQATVVRPDLLGLST	-0.0139
HMLRVVSTRQAFDIVRGWADAHPQDPEHNKTLDELEELAKKEVWDDWSRTNEIAERLNALLVSIGANVRTA	-0.961
HMLSDEEKMAALNEQARQRGFTISPGVLPYLITHYQRDMHSLSMILDALDRYSLQTKRTITLPLLHDLLQQ	-1.04
HMLSKEFRFFTYLLESYAQHKNTTAGAVLKTLDEKGLTDFVYKMYDLYHVEAIENAYMDLDSLIATGKPA	-3.64
HMLSKGDRVSWDTPQGRTQGEVVEKKTKDFEHDGQKFTASDDDPAFIVKSEKSGAEAAHKGSALNK	-0.000228
HMLSLGIMEADMLKTGKHTISGISKATPEQRQKIDSDIEELKKKYPEKNITSKVENDNLIVESGVTAP	0.029
HMLSNKIEQLRKEKGYTFAKLSELSGISTGRLSDLATGKRNNPTMDTLIKLADALDVTLDELVGR	-0.26
HMLSNYIGMTLGEAKRNLGQGVNITVNGPNNDNAEVTGQDPTSGSSFDKSKDTITLTT	0.148
HMLSPAQSLLLRTAARRPDGRVIPPDTLRGGARVKVLTSLLQRGWIEPVDGGHVLTDAGYAAIG	-0.819
HMLSTNDYNENKNKLIKDFEIKFIIKHLKLNKGNVAATARSINFHPVSLRQKIAKLGIDVDEVMAG	-2.59
HMLSTQEYIKKNIENGSWKVGEKIPSENNLTEILGVSRASIRVAIQQFIALDVLNSIHGKGTFVKTNNIMG	0.112
HMLTALTDREEEILVLLAHNLSNKEIAKRLNLSVNTVRNHTSHIYEKLNVTSRRKAITLAQSLHLLPP	-1.48
HMLTAPMPGIVRQVNVDTGQKVRKGQPLMVLEAMKMEHQIIAPQAGKIEAIHYNEGDRVEMGSVLISIF	-1.17
HMLTAPMPGIVTEILVKEGQRVRSGQPLMILEAMKMEHQVTAPKSGQIEKIYFSEGEKVDMGSDLLSIS	0.5
HMLTEEVEISLMDMTKPTQPATIKTTATIQKGATTVMPKQIKMPEGYEFYGNYKMDQPFELTMTFVVKKI	-1.17
HMLTGESDNVEKSINKLGTENLALADQTNMGFKGTFINSGHGMAIVVKTGMQTELGKIASMIQIA	0.218
HMLTGISALKPTEAFPDEIFYEIFEIEDNIERTQYIESLRNTARQLKRVTEFNNLYKSFVLDYAQRQKQ	-1.93
HMLTKAEEQVMDYLWKLEKAFVKDILDEFPEPKPAYTTVSTMVRILEKKGMVGYTAYGKNHQYYPL	-1.97

Sequence	soluble fraction (log2)
HMLTKSELVFDTLKKRIIDGELEPGTELVISRISEEFNVSTIPVREAIKTLASEGLVEMEPHKSAKVAE	-0.0052
HMLTKSVLGNQIKVLRLEKGLSQEEFGAPVDLSRSAVSQIESGQMYPSLESIGKIVKYYSTSWDNLVG	-0.846
HMLTLDEKRRLQIMRVQVALTSLGLYNGRVDGVLNAETKLGLEFFQDLKGLPKSGTMTTPTLNALGVPA	-2.43
HMLTLSGPEHAVVRALWPEPELDFDVLIRKTGLPSAQLMTLAMQLEMKKIIRRLPGRRLALMDDIRR	-3.98
HMLTRSTVNVETGTAAIGLGKLYGVYDMSRKGLKYSFSVDSDAMTKVMEMLLPLGIKSLTVEPPS	-1.55
HMLTTADLMMVHANSNKAIDYIVTDDNTKLTVDEPVTAKWITTADSIYRAVAYYNKVGDGKAQIVSVGN	-0.0103
HMLTYPEHVRLRMIELRKTRSLSQSEFGTYLGLSYQTISSLELGRHEWSLAHIQTALLRFELPPNYF	-4.27
HMLVATFGPTTGWEGREIIWDVDRFILVGHGAVPAAGVLDYDRRGQLIWAQPELRAWVVEVDRWETG	-2.22
HMLVMTDNVIKAINDLLNYEAAAGIKKKQRYTAYQIYKELSEQGVYHGSRRRMEEVVSKLRVERNQI	-2.79
HMLVPWKSANLFKLVEPNFRLAERKIPMLPSADREKLQEIMSDMKDAIVDNDKMALMKLDEELTDFLFDFV	-1.49
HMLVSPLDEIPGIGRNRKKTLLNHFGSAKTIEGASLEDLKKVDGISELIAKKIYNYFHLNKNF	-0.85
HMLWTDTKYVTVPDFVGKEPKEIESSYLYNIEYHGEGTKVISQQPAAFSRTIEGGTVRLYLG	-0.0387
HMLYGRRFQVEGLNLERYLRAAADSGIPLKGARRFGRTLTGVAAEEHMAALEALARQGGWLFTPLEAVGAN	-0.948
HMLYKNIAKKLRFRINSDEFAIGDVLPTERQLMEEYQASRVSIRKAIDELVAIDLIEKKQGSGTYIKQKEV	-1.89
HMMESLGIRLKRLRKDKGLTQVELGKLSGVTGVTIGYWEKDLNEPGSKALSKLAQALGTTESYLLYGVS	-1.21
HMMNNKEIGTRIAVLRKGMGDSQAKLAERLDVSPQAVSKWETGQSLPDIGNLLKLSWLFRTSINHILEGS	-2.18
HMNADAPWSPFSPGFTGPMNRPVIGLVTKADLANPQRISLVESWLVQAGAQKVFVTSALENTGVDEMFIFL	-0.152
HMNADLDIQNVNGNTPLWEAVMRYRGDGFFIEQLLKNGANPDIKNNYGVSPKSLARTIANYDVRRFFN	-0.281
HMNADSLIGENIRISERVSNMDQTGMAVVHGQEWTVRTRNDNEIIEPGEEAKILAISGVKLIVEK	-0.136
HMNAESLIGDRAVVTVAIERNKRGRVDVTGQDWAATTRDGEEIKVGQEVLVVGISGVALIVEER	-1.1
HMNAIYKFVLGMIGKRSGVVTTLPSKKQVEFQANMLAEKFMQNGIDPNALKSPEQVKNVLANIDQ	-1.13
HMNALVAKYKQGVTEEQQQGQGIIIIKRVVVRDQEAWVYEKKIFDWGGVSYFRDKQRITASTFNQETAL	-2.79
HMNAQLTTQEAADLLNVSRPHLVKLLEDGELPFLRTGKHRRVRLADLLQFKNAREQASVQAMDELSRQAQ	-0.103
HMNARSTSYSDFIARVDKDEVASVRLDGETVTYQAADGTTYTTVKPESDPIAERLIAKGIEVNVVRQ	-0.348
HMNASITVPDVRNLTVKQASEQLLASGFTPIPYAATKDGVGNDIVYAQDPPPSVLARSGDQITITYNPA	0.0994
